Measured values published in patent US12359199B2, “Regulation of gene expression via aptamer-mediated control of self-cleaving ribozymes” (MEIRAGTX UK II LIMITED, priority 2016, dated 2025).

Key:
Type in all cases: cell-based
[1] = tested on: GFP expression in HEK 293 cells; test: GFP fluorescence intensity of transfected HEK 293 cells; details: ribozyme in 3′ UTR of EGFP; for fold reduction (suppression) of GFP expression / reduction (inhibition/suppression) of GFP expression: compared to pEGFP-C1 control
Excerpt: Plasmid constructs: oligonucleotides containing wild type or mutant twister ribozyme sequences, either from Nasonia Vitripennis (wasp) or from environmental samples, flanked by BsrGI and MfeI sites, were synthesized (IDT). The synthesized oligonucleotides (“oligos”) were digested with BsrGI and MfeI and cloned into pEGFP-C1 (Clontech) digested with the compatible restriction enzymes. The sequences of the constructed vectors were verified by DNA sequencing (Genewiz).
Transfection and measurement of GFP fluorescence: 3.5×10^4 HEK 293 cells were plated in a 96-well flat bottom plate the day before transfection. Plasmid DNA (500 ng) was added to a tube or a 96-well U-bottom plate. Separately, TransIT-293 reagent (Mirus; 1.4 μl) was added to 50 μl Opti-mem I media (Life Technologies), and allowed to sit for 5 minutes at room temperature (“RT”). Then, 50 μl of this diluted transfection reagent was added to the DNA, mixed, and incubated at RT for 20 min. Finally, 7 μl of this solution was added to a well of cells in a 96-well plate. […] GFP fluorescence intensity was measured by Tecan plate reader, using Excitation wavelength at 484 nm, Emission wavelength at 510 nm and Excitation bandwidth at 5 nm. The GFP fluorescence intensity was expressed as the value generated by GFP constructs subtracted by the value generated by LacZ construct.
Measurement of GFP fluorescence intensity was performed as described in Example 1.

[2] = tested on: firefly luciferase expression in HEK 293 cells; test: Firefly luciferase assay of HEK 293 cells transfected with twister ribozyme constructs (no ligand); details: twister in 3′ UTR of firefly luciferase, compared to pFLuc control construct
Excerpt: Plasmid constructs: The following primers were used to generate constructs GFP_wasp_No Sac 0HP or GFP_wasp_No Sac 3HP: forward primers NoSac_Fwd (5′ […]) and NoSac3HP_Fwd (5′ […]) and reverse primer MfeI Rev (5′ […]). GFP_wasp-twister vector was used as template and the PCR-amplified DNA fragments were digested with BsrGI and MfeI and cloned into pEGFP-C1 digested with BsrGI and MfeI enzymes. The EGFP gene in pEGFP-C1 was replaced with the firefly luciferase gene to generate the pFLuc vector using Gibson cloning strategy and cloning kit (NEB). The same strategy was used to generate constructs Luc_wasp_No Sac 0HP and Luc_wasp_No Sac 3 HP by replacing the EGFP gene in constructs GFP_wasp_no Sac 0HP and GFP_wasp_no Sac 3HP with the firefly luciferase gene.
Firefly luciferase assay of cultured cells: 24 hours after media change, plates were removed from the incubator, equilibrated to RT for several minutes on a lab bench, and then aspirated. Glo-lysis buffer (Promega, 100 μL, RT) was added, and the plates allowed to remain at RT for at least 5 minutes. […] Following a 5-minute incubation at RT, luminescence was measured using a Tecan machine with 500 mSec read time. The luciferase activity was expressed as mean relative light unit (RLU)±S.D.

[3] = tested on: firefly luciferase expression in HEK 293 cells; test: Firefly luciferase assay of transfected HEK 293 cells treated with or without guanine or guanosine; details: riboswitch and linker2A downstream of start codon, guanine vs untreated control
Description: Firefly luciferase assay of cultured cells: 24 hours after media change, plates were removed from the incubator, equilibrated to RT for several minutes on a lab bench, and then aspirated. Glo-lysis buffer (Promega, 100 μL, RT) was added, and the plates allowed to remain at RT for at least 5 minutes. The well contents were mixed by 50 μL trituration, and 20 μL of each sample was mixed with 20 μL of bright-glo reagent (Promega) that had been diluted to 10% in glo-lysis buffer. 96 wells were spaced on an opaque white 384-well plate. Following a 5-minute incubation at RT, luminescence was measured using a Tecan machine with 500 mSec read time. The luciferase activity was expressed as mean relative light unit (RLU)±S.D. […]
Transfection and aptamer ligand treatment: HEK 293 cells were transfected as described in Example 1. Four hours after transfection, the media was aspirated, and new media with or without 500 μM guanine or 1 mM guanosine (Sigma) was added. Luciferase assay was performed 20 to 24 hours after guanine or guanosine treatment as described in Example 2. The reduction fold was expressed as the quotient of luciferase activity obtained in the absence of aptamer ligand divided by the value obtained in the presence of the aptamer ligand.
Oligos containing either a start codon or coding sequence for the first 10 amino acids of GFP and waspGua16 followed by a linker2A sequence were synthesized (IDT) and cloned into the pLuc vector using the Gibson cloning strategy and cloning kit (NEB). Transfection and luciferase assay of cultured cells were performed as described in Example 3. […]

B1: wasp-twister: Twister ribozyme sequence from N. vitripennis cloned into the 3′ UTR in pEGFP-C1 vector (nucleic acid)
DNA: GTGACCGCCGCCGGGATCACTCTCGGCATGGACGAGCTGTACAAGTAAACCGCGGCTTGTAATGCGGCCGTGTAAATAATTTACACGTCGGTCTCAAGCCCGATAAACGCAGAGAGCAAGGCGGCCGCCATACCACATTTGTAGAGGTTTTACTTGCTTTAAAAAACCTCCCACACCTCCCCCTGAACCTGAAACATAAAATGAATGC
modifications: misc_feature 1..208 wasp-twister in pEGFP-C1
effect on GFP expression (in words) [1]: reduced expression of GFP
fold reduction (suppression) of GFP expression [1]: 36 fold
reduction (inhibition/suppression) of GFP expression [1]: 97%
fold reduction (suppression) of GFP expression ([1]; listed as GFP-twister): 37 fold
fold reduction (suppression) of GFP expression ([1]; listed as Wasp-twister): ~36 fold
reduction (inhibition/suppression) of GFP expression ([1]; listed as Wasp-twister): approximately 97%
fold reduction (suppression) of GFP expression ([1]; listed as wild type twister ribozyme): 44 fold

B2: es-twister: Twister ribozyme sequence from environmental sample cloned into the 3′ UTR in pEGFP-C1 vector (nucleic acid)
DNA: GTGACCGCCGCCGGGATCACTCTCGGCATGGACGAGCTGTACAAGTAAACCGCGGCAATAAAGCGGTTACAAGCCCGCAAAAATAGCAGAGTAATGTCGCGATAGCGCGGCATTAATGCAGCTTTATTGGCGGCCGCCATACCACATTTGTAGAGGTTTTACTTGCTTTAAAAAACCTCCCACACCTCCCCCTGAACCTGAAACATAAAATGAATGC
modifications: misc_feature 1..217 es-twister in pEGFPC1
effect on GFP expression (in words) [1]: significantly reduced target gene expression
reduction (inhibition/suppression) of GFP expression [1]: about 50%

B3: wasp-twister Mutant: Cleavage-incapable mutant wasp twister, A6 replaced with G, in 3′ UTR of pEGFP-C1 (nucleic acid)
DNA: GTGACCGCCGCCGGGATCACTCTCGGCATGGACGAGCTGTACAAGTAAACCGCGGCTTGTGATGCGGCCGTGTAAATAATTTACACGTCGGTCTCAAGCCCGATAAACGCAGAGAGCAAGGCGGCCGCCATACCACATTTGTAGAGGTTTTACTTGCTTTAAAAAACCTCCCACACCTCCCCCTGAACCTGAAACATAAAATGAATGC
modifications: misc_feature 1..208 wasp-twister-mut in pEGFP-C1
notes: Cleavage-incapable mutant wasp twister, A6 replaced with G, in 3′ UTR of pEGFP-C1
effect on GFP expression (in words) [1]: did not cause a reduction in GFP expression
effect on GFP expression (in words) ([1]; listed as A6G mutation): completely abolished the suppression in GFP expression

B4: GFP_wasp_no Sac 0HP: GFP wasp-twister construct with SacII sequence at 5′ end of twister deleted (nucleic acid)
DNA: GTGACCGCCGCCGGGATCACTCTCGGCATGGACGAGCTGTACAAGTAAACTTGTAATGCGGCCGTGTAAATAATTTACACGTCGGTCTCAAGCCCGATAAACGCAGAGAGCAAGGCGGCCGCCATACCACATTTGTAGAGGTTTTACTTGCTTTAAAAAACCTCCCACACCTCCCCCTGAACCTGAAACATAAAATGAATGC
modifications: misc_feature 1..202 wasp_no Sac 0HP in pEGFP-C1
fold reduction (suppression) of GFP expression [1]: 68 fold

B5: GFP_wasp_no Sac 3HP: GFP wasp-twister construct with SacII site replaced by CGC creating 3 base pair stem (3HP) at P1 stem (nucleic acid)
DNA: GTGACCGCCGCCGGGATCACTCTCGGCATGGACGAGCTGTACAAGTAAACGCCTTGTAATGCGGCCGTGTAAATAATTTACACGTCGGTCTCAAGCCCGATAAACGCAGAGAGCAAGGCGGCCGCCATACCACATTTGTAGAGGTTTTACTTGCTTTAAAAAACCTCCCACACCTCCCCCTGAACCTGAAACATAAAATGAATGC
modifications: misc_feature 1..205 wasp_no Sac 3HP in pEGFP-C1
notes: GFP wasp-twister construct with SacII site replaced by CGC creating 3 base pair stem (3HP) at P1 stem
fold reduction (suppression) of GFP expression [1]: 104 fold

B6: Luc_wasp_No Sac 0HP: Firefly luciferase construct with wasp twister without SacII sequence in 3′ UTR (nucleic acid)
DNA: TCAGAGAGATCCTCATAAAGGCCAAGAAGGGCGGAAAGATCGCCGTGTAAACTTGTAATGCGGCCGTGTAAATAATTTACACGTCGGTCTCAAGCCCGATAAACGCAGAGAGCAAGGCGGCCGCCATACCACATTTGTAGAGGTTTTACTTGCTTTAAAAAACCTCCCACACCTCCCCCTGAACCTGAAACATAAAATGAATG
modifications: misc_feature 1..203 wasp_No Sac 0HP in pLuc
fold reduction of luciferase activity [2]: 101 fold

B7: Luc_wasp_No Sac 3HP: Firefly luciferase construct with wasp twister with 3 bp stem (3HP) at P1 stem in 3′ UTR (nucleic acid)
DNA: TCAGAGAGATCCTCATAAAGGCCAAGAAGGGCGGAAAGATCGCCGTGTAAACGCCTTGTAATGCGGCCGTGTAAATAATTTACACGTCGGTCTCAAGCCCGATAAACGCAGAGAGCAAGGCGGCCGCCATACCACATTTGTAGAGGTTTTACTTGCTTTAAAAAACCTCCCACACCTCCCCCTGAACCTGAAACATAAAATGAATGC
modifications: misc_feature 1..207 wasp_No Sac 3HP in pLuc
notes: Firefly luciferase construct with wasp twister with 3 bp stem (3HP) at P1 stem in 3′ UTR
fold reduction of luciferase activity [2]: 254 fold

B8: ATG_waspGua16: waspGua16 and linker2A inserted downstream of ATG and upstream of remaining luciferase coding sequence (nucleic acid)
DNA: ATGACGCCTTGTAATGCGGCATATAATCGCGTGGATATGGCACGCAAGTTTCTACCGGGCACCGTAAATGTCCGACTATTCGGTCTCAAGCCCGATAAACGCAGAGAGCAAGGCGAAGGCGGATCTTCAGGTAGTGGCGAGGGCAGAGGAAGTCTTCTAACATGCGGTGACGTGGAGGAGAATCCCGGCCCCGAAGACGCCAAAAACATAAAGAAAGGCCCGGCGCCA
modifications: misc_feature 1..228 ATG_wtWaspGua16 in pLuc
reduction of luciferase gene expression in the presence of guanine [3]: 68%

B9: 10aa_waspGua16: waspGua16 and linker2A inserted downstream of the coding sequence for the first 10 amino acids of GFP, in pLuc (nucleic acid)
DNA: ATGGTGAGCAAGGGCGAGGAGCTGTTCACCACGCCTTGTAATGCGGCATATAATCGCGTGGATATGGCACGCAAGTTTCTACCGGGCACCGTAAATGTCCGACTATTCGGTCTCAAGCCCGATAAACGCAGAGAGCAAGGCGAAGGCGGATCTTCAGGTAGTGGCGAGGGCAGAGGAAGTCTTCTAACATGCGGTGACGTGGAGGAGAATCCCGGCCCCGAAGACGCCAAAAACATAAAGAAAGGCCCGGCGCCA
modifications: misc_feature 1..255 10aa_wtWaspGua16 in pLuc
reduction of luciferase gene expression in the presence of guanine [3]: 68%
